The results in this text go back to article PMC5165034 (2016).

The labels stand for the following.
B1: 2F4 HCAb (antibody, V domains shown)
VH: EVQLVESGGGLVKPGGSLRLSCAASGFAFSDYYMSWLRQAPGKGLEWVSYISSSGSNIYYADSVKGRFTISRDNAKNSLYLQMNSLRAEDTAVYYCARGAGVFDYLGQGGRGTLVTVSS
B2: 7F2 HCAb (antibody, V domains shown)
VH: EVQLVESGGGLVKPGGSLRLSCAASGFTFSADYMSWIRQAPGKGLEWVSYISSSGSSIYYADSVKGRFTISRDNAKNSLYLQMNSLRAEDTAVYYCARGWFGESHSFDYWGQGTLVTVSS
B3: 1G11 HCAb (antibody, V domains shown)
VH: EVQLVESGGGLVKPGGSLRLSCAASGFTFSDYYMSWIRQTPGKGLEWVSYISSSGSNIYYADSVKGRFTISRDNAKNSLYLQMNSLRAEDTAVYYCARGISMARDSWGQGTLVTVSS
B4: 3A8 HCAb (antibody, V domains shown)
VH: EVQLVESGGGLVKPGGSLRLSCAASGFTFSDYYMSWIRQAPGKGLEWVSYISSSGDIIYYADSVKGRFTISRDNAKNSLFLQMNSLRAEDTAVYYCTRGVSLVRDYWGQGTQVTVSS
B5: 1F4 HCAb (antibody, V domains shown)
VH: EVQLVESGGGLVKPGGSLRLSCAASGFTFSDYYMSWIRQAPGKGLEWVSYISSSGSTIYYADSVKGRFTISRDNAKNSLYLQMNSLRAEDTAVYYCARGVKLTEDDWGQGTLVTVSS
B6: 1C12 HCAb (antibody, V domains shown)
VH: EVQLVESGGGLVKPGGSLRLSCAASGFTFSDYYMSWIRQAPGKGLEWVSYISSSGSTIYYADSVKGRFTISRDNAKNSLYLQMNSLRAEDTAVYYCARGVAMVRDSWGQGTLVNVSS

This assay has as its target bromelain-released HA (BHA) of influenza X-31 (influenza A strain X-31 (H3N2)). Put plainly: BLI.
For B1, the Kd turned out to be 5.6 nM.
Consider B2, for which the Kd came out at 35 nM.
Turning to B3, the Kd was 2.9 nM.
For B4, the Kd is 3.2 nM.
Take B5: the Kd is 6.6 nM.
Turning to B6, the Kd came out at 1.8 nM.
